Data: PMC11271386 (Analytical and Bioanalytical Chemistry, 2024)

What was measured:
[1] = target: T1, ^FlagDNAJB8^WT (human, UniProt Q8NHS0 1-232); test: affinity purification with mass spectrometry; TMT-AP-MS comparing four conditions: ^FlagDNAJB8 WT vs. H31Q, with or without 1 mM DSP crosslinking of the cells before lysis; RIPA lysis and washes, M2 anti-Flag beads; crosslinks reversed with TCEP; three biological replicates; conditions: partners not purified
T1 construct: DNAJB8, human Class B Hsp40 (J-domain protein); also called Hsp40 DNAJB8; source: HEK293T, transfected (calcium phosphate), in lysate
T1 sequence (looked up): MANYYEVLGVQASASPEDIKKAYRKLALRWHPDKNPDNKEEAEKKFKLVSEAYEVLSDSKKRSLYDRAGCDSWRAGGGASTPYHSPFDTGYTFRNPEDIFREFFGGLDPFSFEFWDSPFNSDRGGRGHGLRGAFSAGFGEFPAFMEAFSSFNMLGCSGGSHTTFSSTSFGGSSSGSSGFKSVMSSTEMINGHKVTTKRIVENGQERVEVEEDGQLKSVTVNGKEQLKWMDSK

[2] = target: T2, ^FlagDNAJB8^H31Q (human, UniProt Q8NHS0 1-232, H31Q); test: as above; conditions: partners not purified
T2 construct: DNAJB8, human Class B Hsp40, with the J-domain mutation H31Q; source: HEK293T, transfected (calcium phosphate), in lysate
T2 sequence (looked up): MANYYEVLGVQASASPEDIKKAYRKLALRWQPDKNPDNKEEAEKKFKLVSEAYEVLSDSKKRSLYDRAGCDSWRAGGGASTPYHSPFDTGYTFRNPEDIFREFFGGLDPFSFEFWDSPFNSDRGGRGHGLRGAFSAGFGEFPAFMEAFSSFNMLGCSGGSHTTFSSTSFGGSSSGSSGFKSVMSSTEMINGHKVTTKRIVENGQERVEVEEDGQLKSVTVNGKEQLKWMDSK

Row | Binder | fold change recovery with DSP crosslinking against without [1] | fold change recovery with DSP crosslinking against without [2] | fold change of recovery with DNAJB8^H31Q compared to DNAJB8^WT, −DSP [2]
1 | 14–3-3θ/YWHAQ (natural protein, human (endogenous in HEK293T), UniProt P27348 1-245, looked up, 14-3-3 theta (YWHAQ), human; source: endogenous, HEK293T lysate) MEKTELIQKAKLAEQAERYDDMATCMKAVTEQGAELSNEERNLLSVAYKNVVGGRRSAWRVISSIEQKTDTSDKKLQLIKDYREKVESELRSICTTVLELLDKYLIANATNPESKVFYLKMKGDYFRYLAEVACGDDRKQTIDNSQGAYQEAFDISKKEMQPTHPIRLGLALNFSVFYYEILNNPELACTLAKTAFDEAIAELDTLNEDSYKDSTLIMQLLRDNLTLWTSDSAGEECDAAEGAEN | 4.8 ± 0.7% | 3.2 ± 0.8% | –
2 | PFDN1 (natural protein, human (endogenous in HEK293T), UniProt O60925 1-122, looked up, PFDN1, prefoldin β subunit, human; also called prefoldin β subunit; source: endogenous, HEK293T lysate) MAAPVDLELKKAFTELQAKVIDTQQKVKLADIQIEQLNRTKKHAHLTDTEIMTLVDETNMYEGVGRMFILQSKEAIHSQLLEKQKIAEEKIKELEQKKSYLERSVKEAEDNIREMLMARRAQ | – | – | 3.4 ± 0.9 fold
